Test results from patent US20220372160A1 (published 2022).

T1: recombinant human CD39 (human, UniProt P49961 38-478)
T1 chain: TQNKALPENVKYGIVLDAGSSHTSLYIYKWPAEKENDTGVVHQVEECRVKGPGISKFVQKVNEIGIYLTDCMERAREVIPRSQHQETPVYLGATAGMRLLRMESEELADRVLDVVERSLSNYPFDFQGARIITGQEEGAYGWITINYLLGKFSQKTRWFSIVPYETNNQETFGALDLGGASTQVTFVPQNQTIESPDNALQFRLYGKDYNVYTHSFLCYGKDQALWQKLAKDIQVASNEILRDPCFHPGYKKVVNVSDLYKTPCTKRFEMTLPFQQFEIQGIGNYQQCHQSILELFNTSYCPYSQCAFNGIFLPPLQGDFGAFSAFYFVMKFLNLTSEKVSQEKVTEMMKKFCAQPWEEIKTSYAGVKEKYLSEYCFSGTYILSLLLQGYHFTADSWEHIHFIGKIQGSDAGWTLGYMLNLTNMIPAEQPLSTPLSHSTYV


Molecular target: T1, recombinant human CD39
Experiment: BLI (ForteBio); IgG, monovalent

Kd [nM]	Binder
28.3	Clone #19 (antibody, V domains shown) VH: EVQLVESGGGLVQPGGSLRLSCAASGFTFRSYWMSWVRQAPGKGLEWVATIKQDGSEKFYVDSVKGRFTISRDNAKNSLYLQMNSLRAEDTAVYYCARDFTRWSHVNWFDPWGQGTLVTVSS VL: EIVMTQSPATLSVSPGERATLSCRASQSVSSSLAWYQQKPGQAPRLLIFGASTRATGIPARFSGSGSGTEFTLTISSLQSEDFAVYYCQQYYHHPYTFGGGTKVEIK
177	Clone #6 (antibody, V domains shown) VH: EVQLVESGGGLVQPGGSLRLSCAASGFTFSSYGMSWVRQAPGKGLEWVANIKQDGSEKYYVDSVKGRFTISRDNAKNSLYLQMNSLRAEDTAVYYCARDFTRWSHVNWFDPWGQGTLVTVSS VL: EIVMTQSPATLSVSPGERATLSCRASQSVSSSLAWYQQKPGQAPRLLIFGASTRATGIPARFSGSGSGTEFTLTISSLQSEDFAVYYCQQYYHHPYTFGGGTKVEIK
94.3	Clone #7 (antibody, V domains shown) VH: QVQLQESGPGLVKPSETLSLTCAVSGYSISSGYYWAWIRQPPGKGLEWIGSIYHSGSTYYNPSLKSRVTISVDTSKNQFSLKLSSVTAADTAVYYCARGAGHRQFAFDIWGQGTMVTVSS VL: not shown
124	Clone #9 (antibody, V domains shown) VH: QVQLQESGPGLVKPSETLSLTCAVSGYSISSGYYWAWIRQPPGKGLEWIGSIYHSGSTYYNPSLKSRVTISVDTSKNQFSLKLSSVTAADTAVYYCARGAGHRQFAFDIWGQGTMVTVSS VL: not shown
1.38	Clone #12 (antibody, V domains shown) VH: EVQLVESGGGLVQPGGSLRLSCAASGFTFSSYYMQWVRQAPGKGLEWVSYISSSSSTIGYADSVKGRFTISRDNAKNSLYLQMNSLRAEDTAVYYCAKGPRYDSSGYRWRYGMDVWGQGTTVTVSS VL: DIQMTQSPSSLSASVGDRVTITCRASQSISSYLNWYQQKPGKAPKLLIYAASSLQSGVPSRFSGSGSGTDFTLTISSLQPEDFATYYCQQLALTPYTFGGGTKVEIK
3.65	Clone #4 (antibody, V domains shown) VH: not shown VL: DIQMTQSPSSLSASVGDRVTITCRASQSISSYLNWYQQKPGKAPKLLIYAASSLQSGVPSRFSGSGSGTDFTLTISSLQPEDFATYYCQQLALTPYTFGGGTKVEIK
37.3	Clone #10 (antibody, V domains shown) VH: QVQLVQSGAEVKKPGSSVKVSCKASGGTFSNYAISWVRQAPGQGLEWMGGIIPIFGTANYAQKFQGRVTITADESTSTAYMELSSLRSEDTAVYYCARPRGDYSGYDAGPIDYWGQGTLVTVSS VL: EIVLTQSPATLSLSPGERATLSCRASQSVSSYLAWYQQKPGQAPRLLIYDASNRATGIPARFSGSGSGTDFTLTISSLEPEDFAVYYCQQRFHFPPTFGGGTKVEIK
28.3	Clone #8 (antibody, V domains shown) VH: QLQLQESGPGLVKPSETLSLTCTVSGGSISSSSYYWGWIRQPPGKGLEWIGSIYYSGSTYYNPSLKSRVTISVDTSKNQFSLKLSSVTAADTAVYYCARGSPTYHDFDLWGRGTLVTVSS VL: EIVLTQSPATLSLSPGERATLSCRASQSVSSYLAWYQQKPGQAPRLLIYDASNRATGIPARFSGSGSGTDFTLTISSLEPEDFAVYYCQQRAIWPPTFGGGTKVEIK
11.6	Clone #2 (antibody, V domains shown) VH: not shown VL: EIVLTQSPATLSLSPGERATLSCRASQSVSSYLAWYQQKPGQAPRLLIYDSSNRATGIPARFSGSGSGTDFTLTISSLEPEDFAVYYCQQSFLWPRTFGGGTKVEIK
3.81	Clone #16 (antibody, V domains shown) VH: QVQLVQSGAEVKKPGSSVKVSCKASGGTFSSNAIGWVRQAPGQGLEWMGGIIPAFGTANYAQKFQGRVTITADESTSTAYMELSSLRSEDTAVYYCARDPVRRSPFDIWGQGTMVTVSS VL: EIVLTQSPATLSLSPGERATLSCRASQSVSSYLAWYQQKPGQAPRLLIYDSSNRATGIPARFSGSGSGTDFTLTISSLEPEDFAVYYCQQSFLWPRTFGGGTKVEIK
14.7	Clone #11 (antibody, V domains shown) VH: QVQLVQSGAEVKKPGSSVKVSCKASGGTFSNYAISWVRQAPGQGLEWMGGIIPIFGTANYAQKFQGRVTITADESTSTAYMELSSLRSEDTAVYYCARPRGDYSGYDAGPIDYWGQGTLVTVSS VL: EIVMTQSPATLSLSPGERATLSCRASQSVSSYLAWYQQKPGQAPRLLIYDSSNRATGIPARFSGSGSGTDFTLTISSLEPEDFAVYYCQQRYLFPITFGGGTKVEIK
3.25	Clone #3 (antibody, V domains shown) VH: not shown VL: DIQMTQSPSSLSASVGDRVTITCRASQSISSYLNWYQQKPGKAPKLLIYAASSLQSGVPSRFSGSGSGTDFTLTISSLQPEDFATYYCQQLYVDPPWTFGGGTKVEIK
